What was measured:
Test in all cases: cell-based or functional assay
[1] = biological target: T1, hIL-12 receptor signaling complex (hIL-12Rβ1 and hIL-12Rβ2) (human, UniProt P42701 24-662; Q99665 24-862)
[2] = biological target: T1, hIL-12 receptor signaling complex …; remark: listed apart in the source
[3] = biological target: T1, hIL-12 receptor signaling complex …; remark: listed apart in the source
[4] = biological target: T1, hIL-12 receptor signaling complex …; remark: listed apart in the source

T1 sequence (Q99665 24-862, chain 2 of 2, other chains not shown): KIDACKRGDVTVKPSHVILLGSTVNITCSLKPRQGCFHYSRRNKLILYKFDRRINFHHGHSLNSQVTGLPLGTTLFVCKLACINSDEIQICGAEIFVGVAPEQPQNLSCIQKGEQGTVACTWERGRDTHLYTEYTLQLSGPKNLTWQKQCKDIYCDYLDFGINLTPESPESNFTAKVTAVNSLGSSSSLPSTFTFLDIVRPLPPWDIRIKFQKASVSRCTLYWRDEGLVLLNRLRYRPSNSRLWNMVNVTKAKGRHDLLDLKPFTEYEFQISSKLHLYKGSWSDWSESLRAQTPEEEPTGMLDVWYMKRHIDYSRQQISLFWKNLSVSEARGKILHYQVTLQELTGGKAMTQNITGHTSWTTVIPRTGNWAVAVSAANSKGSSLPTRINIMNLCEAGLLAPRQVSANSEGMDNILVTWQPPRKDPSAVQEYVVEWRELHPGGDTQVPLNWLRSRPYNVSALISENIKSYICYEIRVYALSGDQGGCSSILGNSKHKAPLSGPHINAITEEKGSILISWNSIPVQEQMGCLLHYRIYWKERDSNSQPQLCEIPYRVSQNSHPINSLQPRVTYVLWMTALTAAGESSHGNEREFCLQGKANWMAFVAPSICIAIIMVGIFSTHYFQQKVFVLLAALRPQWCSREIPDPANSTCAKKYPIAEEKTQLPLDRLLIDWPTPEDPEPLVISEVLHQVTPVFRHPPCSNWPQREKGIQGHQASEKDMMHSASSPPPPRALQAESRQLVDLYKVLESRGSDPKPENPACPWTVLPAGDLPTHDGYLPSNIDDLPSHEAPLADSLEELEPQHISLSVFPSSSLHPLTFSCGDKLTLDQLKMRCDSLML

B1: human IL12 mutein, hIL-12p40 E81A, F82A with hIL-12p35-8X His (ligand)
chain 1: IWELKKDVYVVELDWYPDAPGEMVVLTCDTPEEDGITWTLDQSSEVLGSGKTLTIQVKAAGDAGQYTCHKGGEVLSHSLLLLHKKEDGIWSTDILKDQKEPKNKTFLRCEAKNYSGRFTCWWLTTISTDLTFSVKSSRGSSDPQGVTCGAATLSAERVRGDNKEYEYSVECQEDSACPAAEESLPIEVMVDAVHKLKYENYTSSFFIRDIIKPDPPKNLQLKPLKNSRQVEVSWEYPDTWSTPHSYFSLTFCVQVQGKSKREKKDRVFTDKTSATVICRKNASISVRAQDRYYSSSWSEWASVPCS
chain 2: RNLPVATPDPGMFPCLHHSQNLLRAVSNMLQKARQTLEFYPCTSEEIDHEDITKDKTSTVEACLPLELTKNESCLNSRETSFITNGSCLASRKTSFMMALCLSSIYEDLKMYQVEFKTMNAKLLMDPKRQIFLDQNMLAVIDELMQALNFNSETVPQKSSLEEPDFYKTKIKLCILLHAFRIRAVTIDRVMSYLNASGSHHHHHHHH
IFNy [gMFI] EC50, CD8+ T Cells [1]: 0.41 nM | IFNy [gMFI] EC50, CD56hi NK Cells [1]: 2.56 nM | IFNy [gMFI] Emax, CD8+ T Cells [1]: 17100 gMFI | IFNy [gMFI] Emax, CD56hi NK Cells [1]: 187000 gMFI | IFNy [%+] EC50, CD8+ T Cells [2]: 0.095 nM | IFNy [%+] EC50, CD56hi NK Cells [2]: 0.02 nM | IFNy [%+] Emax, CD8+ T Cells [2]: 81.5 %+ | IFNy [%+] Emax, CD56hi NK Cells [2]: 94 %+ | pSTAT4 [gMFI] EC50, CD8+ T Cells [3]: 6.6 nM | pSTAT4 [gMFI] EC50, CD56hi NK Cells [3]: 5.94 nM | pSTAT4 [gMFI] Emax, CD8+ T Cells [3]: 100000 gMFI | pSTAT4 [gMFI] Emax, CD56hi NK Cells [3]: 25000 gMFI | pSTAT4 [%+] EC50, CD8+ T Cells [4]: 1.13 nM | pSTAT4 [%+] EC50, CD56hi NK Cells [4]: 1.85 nM | pSTAT4 [%+] Emax, CD8+ T Cells [4]: 80.2 %+ | pSTAT4 [%+] Emax, CD56hi NK Cells [4]: 85.2 %+

B2: human IL12 mutein, hIL-12p40 E81A, F82A, K106A with hIL-12p35-8X His (ligand)
chain 1: IWELKKDVYVVELDWYPDAPGEMVVLTCDTPEEDGITWTLDQSSEVLGSGKTLTIQVKAAGDAGQYTCHKGGEVLSHSLLLLHAKEDGIWSTDILKDQKEPKNKTFLRCEAKNYSGRFTCWWLTTISTDLTFSVKSSRGSSDPQGVTCGAATLSAERVRGDNKEYEYSVECQEDSACPAAEESLPIEVMVDAVHKLKYENYTSSFFIRDIIKPDPPKNLQLKPLKNSRQVEVSWEYPDTWSTPHSYFSLTFCVQVQGKSKREKKDRVFTDKTSATVICRKNASISVRAQDRYYSSSWSEWASVPCS
chain 2: RNLPVATPDPGMFPCLHHSQNLLRAVSNMLQKARQTLEFYPCTSEEIDHEDITKDKTSTVEACLPLELTKNESCLNSRETSFITNGSCLASRKTSFMMALCLSSIYEDLKMYQVEFKTMNAKLLMDPKRQIFLDQNMLAVIDELMQALNFNSETVPQKSSLEEPDFYKTKIKLCILLHAFRIRAVTIDRVMSYLNASGSHHHHHHHH
IFNy [gMFI] EC50, CD8+ T Cells [1]: 1.4 nM | IFNy [gMFI] EC50, CD56hi NK Cells [1]: 2.8 nM | IFNy [gMFI] Emax, CD8+ T Cells [1]: 15000 gMFI | IFNy [gMFI] Emax, CD56hi NK Cells [1]: 140000 gMFI | IFNy [%+] EC50, CD8+ T Cells [2]: 0.533 nM | IFNy [%+] EC50, CD56hi NK Cells [2]: 0.079 nM | IFNy [%+] Emax, CD8+ T Cells [2]: 78.4 %+ | IFNy [%+] Emax, CD56hi NK Cells [2]: 90.8 %+ | pSTAT4 [gMFI] EC50, CD8+ T Cells [3]: 9.75 nM | pSTAT4 [gMFI] EC50, CD56hi NK Cells [3]: 156 nM | pSTAT4 [gMFI] Emax, CD8+ T Cells [3]: 86900 gMFI | pSTAT4 [gMFI] Emax, CD56hi NK Cells [3]: 35700 gMFI | pSTAT4 [%+] EC50, CD8+ T Cells [4]: 1.86 nM | pSTAT4 [%+] EC50, CD56hi NK Cells [4]: 4.03 nM | pSTAT4 [%+] Emax, CD8+ T Cells [4]: 77.7 %+ | pSTAT4 [%+] Emax, CD56hi NK Cells [4]: 86.9 %+

B3: human IL12 mutein, hIL-12p40 E81I, F82A with hIL-12p35-8X His (ligand)
chain 1: IWELKKDVYVVELDWYPDAPGEMVVLTCDTPEEDGITWTLDQSSEVLGSGKTLTIQVKIAGDAGQYTCHKGGEVLSHSLLLLHKKEDGIWSTDILKDQKEPKNKTFLRCEAKNYSGRFTCWWLTTISTDLTFSVKSSRGSSDPQGVTCGAATLSAERVRGDNKEYEYSVECQEDSACPAAEESLPIEVMVDAVHKLKYENYTSSFFIRDIIKPDPPKNLQLKPLKNSRQVEVSWEYPDTWSTPHSYFSLTFCVQVQGKSKREKKDRVFTDKTSATVICRKNASISVRAQDRYYSSSWSEWASVPCS
chain 2: RNLPVATPDPGMFPCLHHSQNLLRAVSNMLQKARQTLEFYPCTSEEIDHEDITKDKTSTVEACLPLELTKNESCLNSRETSFITNGSCLASRKTSFMMALCLSSIYEDLKMYQVEFKTMNAKLLMDPKRQIFLDQNMLAVIDELMQALNFNSETVPQKSSLEEPDFYKTKIKLCILLHAFRIRAVTIDRVMSYLNASGSHHHHHHHH
IFNy [gMFI] EC50, CD8+ T Cells [1]: 0.55 nM | IFNy [gMFI] EC50, CD56hi NK Cells [1]: 1.48 nM | IFNy [gMFI] Emax, CD8+ T Cells [1]: 11700 gMFI | IFNy [gMFI] Emax, CD56hi NK Cells [1]: 313000 gMFI | IFNy [%+] EC50, CD8+ T Cells [2]: 0.37 nM | IFNy [%+] EC50, CD56hi NK Cells [2]: 0.061 nM | IFNy [%+] Emax, CD8+ T Cells [2]: 68.3 %+ | IFNy [%+] Emax, CD56hi NK Cells [2]: 93.7 %+

B4: human IL12 mutein, hIL-12p40 E81K, F82A with hIL-12p35-8X His (ligand)
chain 1: IWELKKDVYVVELDWYPDAPGEMVVLTCDTPEEDGITWTLDQSSEVLGSGKTLTIQVKKAGDAGQYTCHKGGEVLSHSLLLLHKKEDGIWSTDILKDQKEPKNKTFLRCEAKNYSGRFTCWWLTTISTDLTFSVKSSRGSSDPQGVTCGAATLSAERVRGDNKEYEYSVECQEDSACPAAEESLPIEVMVDAVHKLKYENYTSSFFIRDIIKPDPPKNLQLKPLKNSRQVEVSWEYPDTWSTPHSYFSLTFCVQVQGKSKREKKDRVFTDKTSATVICRKNASISVRAQDRYYSSSWSEWASVPCS
chain 2: RNLPVATPDPGMFPCLHHSQNLLRAVSNMLQKARQTLEFYPCTSEEIDHEDITKDKTSTVEACLPLELTKNESCLNSRETSFITNGSCLASRKTSFMMALCLSSIYEDLKMYQVEFKTMNAKLLMDPKRQIFLDQNMLAVIDELMQALNFNSETVPQKSSLEEPDFYKTKIKLCILLHAFRIRAVTIDRVMSYLNASGSHHHHHHHH
IFNy [gMFI] EC50, CD8+ T Cells [1]: 0.51 nM | IFNy [gMFI] EC50, CD56hi NK Cells [1]: 0.62 nM | IFNy [gMFI] Emax, CD8+ T Cells [1]: 13200 gMFI | IFNy [gMFI] Emax, CD56hi NK Cells [1]: 123000 gMFI | IFNy [%+] EC50, CD8+ T Cells [2]: 0.305 nM | IFNy [%+] EC50, CD56hi NK Cells [2]: 0.046 nM | IFNy [%+] Emax, CD8+ T Cells [2]: 78.5 %+ | IFNy [%+] Emax, CD56hi NK Cells [2]: 93.7 %+

— patent publication US20250388640A1 (SYNTHEKINE, published 2025)
